Experimental data taken from publication PMC6304784, “Pathological mutations differentially affect the self-assembly and polymerisation of the innate immune system signalling adaptor molecule MyD88” (BMC Biology, 2018).

B1: GFP-tagged MyD88 TIR domain (residues 159-296) (domain or fragment, human, UniProt Q99836 159-296, looked up)
chain: ERFDAFICYCPSDIQFVQEMIRQLEQTNYRLKLCVSDRDVLPGTCVWSIASELIEKRCRRMVVVVSDDYLQSKECDFQTKFALSLSPGAHQKRLIPIKYKAMKKEFPSILRFITVCDYTNPCTKSWFWTRLAKALSLP
notes: MyD88 TIR domain, residues 159-296; also called TIR domain alone; source: in vitro translated in Leishmania tarentolae extract (LTE), measured without purification; not shown: GFP, N-terminal, kept
B2: GFP-tagged MyD88 death domain (residues 1-117, includes part of the intermediate domain) (domain or fragment, human, UniProt Q99836 1-117, looked up)
chain: MAAGGPGAGSAAPVSSTSSLPLAALNMRVRRRLSLFLNVRTQVAADWTALAEEMDFEYLEIRQLETQADPTGRLLDAWQGRPGASVGRLLELLTKLGRDDVLLELGPSIEEDCQKYI
notes: MyD88 death domain with the crucial part of the intermediate domain, residues 1-117; also called DD; death domain alone; source: in vitro translated in Leishmania tarentolae extract (LTE), measured without purification; not shown: GFP, N-terminal, kept

Target: the molecule itself
Test: single-molecule fluorescence fluctuation spectroscopy (brightness B parameter, time-traces, intensity histograms); GFP-tagged protein freely diffusing in the cell-free expression mixture on a confocal microscope, 488-nm laser; dilution series of the DNA template giving 0 to about 320 nM protein; mutants compared at 150 nM; samples diluted 10 times in buffer A

| Protein | average brightness B (> 150 nM) relative to monomeric sfGFP [fold over monomeric GFP] |
| --- | --- |
| B1 | ~4 |
| B2 | ~8 |
